# Laboratory results published in patent US20230272048A1 (UNIVERSITY OF MELBOURNE, published 2023).
# B1: 1842 heavy chain with NC-Cow1 light chain (antibody)
# VH: KVQLQESGPSLVKPSQTLSLTCTASGFSLSDKAVGWVRQAPGQALEWLGSIDTGGNADYNPGLKSRLSITKDNAKSQVSLSVSSVTTEGSATYYCSTVHQKTLRSCPSDYPYICDCEDTGSHCCRATNCPYYCNHGRDRMCTGRTYTYEWHVEAWGQGLLVTVSS
# VL: HSYELTQPSSVSGSLGQRVSVTCSGSSSNVGNGYVSWYQLIPGSAPRTIIYGDTSRASGVPERFSGSRSGNTATLTISSLQAEDEADFFCASPDDSSSNAVFGSGTTLTVL
# B2: 1872 heavy chain with NC-Cow1 light chain (antibody)
# VH: KVQLRESGPSLVKPSQTLSLTCTASGFSLSDKAVGWVRQAPGQPLEWLGTIDTTGNAVYNPGLKSRLSITKDNSKSQVSLSLSSVTTEDSATYHCSTVHQKTRRSCPSDYSFICDCEGTGSHCCRASNCPYYCNYGRDRMCTGRSNIHEWHVDAWGQGLLVTVSS
# VL: HSYELTQPSSVSGSLGQRVSVTCSGSSSNVGNGYVSWYQLIPGSAPRTIIYGDTSRASGVPERFSGSRSGNTATLTISSLQAEDEADFFCASPDDSSSNAVFGSGTTLTVL
# B3: VRC01 (antibody, V domains shown)
# VH: QVQLVQSGGQMKKPGESMRISCRASGYEFIDCTLNWIRLAPGKRPEWMGWLKPRGGAVNYARPLQGRVTMTRDVYSDTAFLELRSLTVDDTAVYFCTRGKNCDYNWDFEHWGRGTPVIVSS
# VL: EIVLTQSPGTLSLSPGETAIISCRTSQYGSLAWYQQRPGQAPRLVIYSGSTRAAGIPDRFSGSRWGPDYNLTISNLESGDFGVYYCQQYEFFGQGTKVQVDI
# Biological target: AD8 WT Env (gp160, from lysed pseudovirions / on pseudovirus) (HIV-1 AD8, clade B)
# Experiment: cell-based or functional assay
row,Binder,"IC50 (read off the curve); axis Neutralisation (%), panel AD8 [ng/mL]"
1,B1,~5
2,B2,~7
3,B3,~300
